Data taken from the supplement of paper PMC10567573.

B1: NETO1 (parent)
chain: GFSPIIGRFCGQQNPPVIKSSGRF

Variants of: B1
Experiment: protein stability index of a GFP-peptide fusion (GPS, HEK-293T) (PSI 1-6); higher = more stable
Settings: c terminus: a fixed tail appended
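Also: lentivirally expressed fusions sorted by FACS into six bins by GFP to DsRed ratio, PSI derived from sequencing read proportions per bin multiplied by bin number.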

Variant	protein stability index
GFSKIIGRFCGQQNPPVIKSSGRF [P4K]	2.59
GFSVIIGRFCGQQNPPVIKSSGRF [P4V]	1.87
GFSEIIGRFCGQQNPPVIKSSGRF [P4E]	2.33
GFSSIIGRFCGQQNPPVIKSSGRF [P4S]	1.99
GFSAIIGRFCGQQNPPVIKSSGRF [P4A]	2.12
GFSHIIGRFCGQQNPPVIKSSGRF [P4H]	2.05
GFSFIIGRFCGQQNPPVIKSSGRF [P4F]	2.09
GFSMIIGRFCGQQNPPVIKSSGRF [P4M]	2.36
GFSQIIGRFCGQQNPPVIKSSGRF [P4Q]	1.91
GFSDIIGRFCGQQNPPVIKSSGRF [P4D]	1.57
GFSTIIGRFCGQQNPPVIKSSGRF [P4T]	1.26
GFSWIIGRFCGQQNPPVIKSSGRF [P4W]	1.91
GFSRIIGRFCGQQNPPVIKSSGRF [P4R]	1.82
GFSCIIGRFCGQQNPPVIKSSGRF [P4C]	1.88
GFSNIIGRFCGQQNPPVIKSSGRF [P4N]	1.69
GFSGIIGRFCGQQNPPVIKSSGRF [P4G]	1.74
GFSYIIGRFCGQQNPPVIKSSGRF [P4Y]	2.44
GFPPIIGRFCGQQNPPVIKSSGRF [S3P]	1.75
GFAPIIGRFCGQQNPPVIKSSGRF [S3A]	2.6
GFVPIIGRFCGQQNPPVIKSSGRF [S3V]	2.03
GFIPIIGRFCGQQNPPVIKSSGRF [S3I]	1.71
GFLPIIGRFCGQQNPPVIKSSGRF [S3L]	1.68
GFWPIIGRFCGQQNPPVIKSSGRF [S3W]	1.75
GFKPIIGRFCGQQNPPVIKSSGRF [S3K]	2.47

Variant	protein stability index
GFRPIIGRFCGQQNPPVIKSSGRF [S3R]	2.04
GFNPIIGRFCGQQNPPVIKSSGRF [S3N]	2.08
GFFPIIGRFCGQQNPPVIKSSGRF [S3F]	2.56
GFHPIIGRFCGQQNPPVIKSSGRF [S3H]	2.03
GFYPIIGRFCGQQNPPVIKSSGRF [S3Y]	1.53
GFCPIIGRFCGQQNPPVIKSSGRF [S3C]	1.22
GFGPIIGRFCGQQNPPVIKSSGRF [S3G]	2.2
GFMPIIGRFCGQQNPPVIKSSGRF [S3M]	1.84
GFEPIIGRFCGQQNPPVIKSSGRF [S3E]	2.78
GFTPIIGRFCGQQNPPVIKSSGRF [S3T]	2.4
GFDPIIGRFCGQQNPPVIKSSGRF [S3D]	2.41
GFQPIIGRFCGQQNPPVIKSSGRF [S3Q]	2.49
LFSPIIGRFCGQQNPPVIKSSGRF [G1L]	2.27
QFSPIIGRFCGQQNPPVIKSSGRF [G1Q]	2.03
FFSPIIGRFCGQQNPPVIKSSGRF [G1F]	1.86
CFSPIIGRFCGQQNPPVIKSSGRF [G1C]	1.6
AFSPIIGRFCGQQNPPVIKSSGRF [G1A]	2.17
TFSPIIGRFCGQQNPPVIKSSGRF [G1T]	1.8
MFSPIIGRFCGQQNPPVIKSSGRF [G1M]	1.98
NFSPIIGRFCGQQNPPVIKSSGRF [G1N]	1.85
HFSPIIGRFCGQQNPPVIKSSGRF [G1H]	1.66
EFSPIIGRFCGQQNPPVIKSSGRF [G1E]	1.7
SFSPIIGRFCGQQNPPVIKSSGRF [G1S]	2.04
RFSPIIGRFCGQQNPPVIKSSGRF [G1R]	1.98

Variant	protein stability index
WFSPIIGRFCGQQNPPVIKSSGRF [G1W]	2.02
PFSPIIGRFCGQQNPPVIKSSGRF [G1P]	2.25
DFSPIIGRFCGQQNPPVIKSSGRF [G1D]	1.6
YFSPIIGRFCGQQNPPVIKSSGRF [G1Y]	1.93
VFSPIIGRFCGQQNPPVIKSSGRF [G1V]	1.93
KFSPIIGRFCGQQNPPVIKSSGRF [G1K]	2.18
IFSPIIGRFCGQQNPPVIKSSGRF [G1I]	2
GFSPCIGRFCGQQNPPVIKSSGRF [I5C]	2.12
GFSPDIGRFCGQQNPPVIKSSGRF [I5D]	2.92
GFSPVIGRFCGQQNPPVIKSSGRF [I5V]	1.87
GFSPWIGRFCGQQNPPVIKSSGRF [I5W]	1.42
GFSPNIGRFCGQQNPPVIKSSGRF [I5N]	2.34
GFSPQIGRFCGQQNPPVIKSSGRF [I5Q]	2.52
GFSPGIGRFCGQQNPPVIKSSGRF [I5G]	2.31
GFSPFIGRFCGQQNPPVIKSSGRF [I5F]	1.79
GFSPSIGRFCGQQNPPVIKSSGRF [I5S]	2.62
GFSPPIGRFCGQQNPPVIKSSGRF [I5P]	2.79
GFSPYIGRFCGQQNPPVIKSSGRF [I5Y]	2.36
GFSPMIGRFCGQQNPPVIKSSGRF [I5M]	2.19
GFSPAIGRFCGQQNPPVIKSSGRF [I5A]	2.05
GFSPTIGRFCGQQNPPVIKSSGRF [I5T]	2.36
GFSPRIGRFCGQQNPPVIKSSGRF [I5R]	2.79
GFSPKIGRFCGQQNPPVIKSSGRF [I5K]	2.75
GFSPLIGRFCGQQNPPVIKSSGRF [I5L]	2.17

Variant	protein stability index
GFSPHIGRFCGQQNPPVIKSSGRF [I5H]	2.59
GFSPEIGRFCGQQNPPVIKSSGRF [I5E]	3.22
GFSPIIKRFCGQQNPPVIKSSGRF [G7K]	1.89
GFSPIIPRFCGQQNPPVIKSSGRF [G7P]	1.65
GFSPIIDRFCGQQNPPVIKSSGRF [G7D]	2.66
GFSPIIHRFCGQQNPPVIKSSGRF [G7H]	1.74
GFSPIIFRFCGQQNPPVIKSSGRF [G7F]	2.03
GFSPIIRRFCGQQNPPVIKSSGRF [G7R]	2.25
GFSPIIIRFCGQQNPPVIKSSGRF [G7I]	2.88
GFSPIILRFCGQQNPPVIKSSGRF [G7L]	1.85
GFSPIIERFCGQQNPPVIKSSGRF [G7E]	2.39
GFSPIIMRFCGQQNPPVIKSSGRF [G7M]	1.56
GFSPIINRFCGQQNPPVIKSSGRF [G7N]	2.38
GFSPIIARFCGQQNPPVIKSSGRF [G7A]	1.73
GFSPIAGRFCGQQNPPVIKSSGRF [I6A]	2.1
GFSPIRGRFCGQQNPPVIKSSGRF [I6R]	3.09
GFSPINGRFCGQQNPPVIKSSGRF [I6N]	2.37
GFSPIVGRFCGQQNPPVIKSSGRF [I6V]	2.15
GFSPILGRFCGQQNPPVIKSSGRF [I6L]	2.55
GFSPIEGRFCGQQNPPVIKSSGRF [I6E]	3.28
GFSPIPGRFCGQQNPPVIKSSGRF [I6P]	2.95
GFSPIWGRFCGQQNPPVIKSSGRF [I6W]	2.68
